Reference: FireProtDB (doi:10.1021/bi00369a002)
“And” between values parts separate entries of the source, which are not always exact repeats. Equal values may be shown once.

Conditions: Escherichia coli (strain K12); pH 7.8; 25 °C; Urea; Absorbance; Potassium phosphate 10 mM; transition: 3; whole UniProt chain shown

B1: Tryptophan synthase alpha chain wild type, P0A877 (protein)
chain: MERYESLFAQLKERKEGAFVPFVTLGDPGIEQSLKIIDTLIEAGADALELGIPFSDPLADGPTIQNATLRAFAAGVTPAQCFEMLALIRQKHPTIPIGLLMYANLVFNKGIDEFYAQCEKVGVDSVLVADVPVEESAPFRQAALRHNVAPIFICPPNADDDLLRQIASYGRGYTYLLSRAGVTGAENRAALPLNHLVAKLKEYNAAPPLQGFGISAPDQVKAAIDAGAAGAISGSAIVKIIEQHINEPEKMLAALKVFVQPMKAATRS
For B1, the denaturant m value was 2.2 kcal/mol/M and 1.2 kcal/mol/M and the “denaturant midpoint (higher = more stable)” value was 2.62 M and 4.18 M.
